{"source": "patent US20070276019A1", "about": "“Haloalkyl Containing Compounds as Cysteine Protease Inhibitors” (Axys Pharmaceuticals, Inc., priority 2003, published 2007)", "origin": "cited, not measured here", "details": "clinical trials"}
{"substance": "OKT3: murine monoclonal antibody directed towards CD-3 domain of activated T-cells", "values": [{"measurement": "patients administered OKT3 that produce antibodies versus the therapy", "result": "20-40%"}]}
